# Measured values published in the array DNA melting data of Ke et al..
# Assay: melting temperature; melt of duplexes
# Details: sodium 0.0675 M; strand 1 µM
row,Substance,Tm [°C]
1,CGACGTGCTAAATGTGCTG+CAGCACATACTGCACGTCG ((((((((...((((((((+))))))))...)))))))),49.7
2,CGACGTGCACAATGTGCTG+CAGCACATTTTGCACGTCG (((((((((.(((((((((+))))))))).))))))))),54
3,CGACGTGCGTTATGTGCTG+CAGCACATATGGCACGTCG ((((((((..(((((((((+)))))))))..)))))))),51.1
4,CGACGTGCCTTATGTGCTG+CAGCACATGAGGCACGTCG ((((((((((.((((((((+)))))))).)))))))))),59.4
5,CGACGTGCTTTATGTGCTG+CAGCACATCGGGCACGTCG ((((((((...((((((((+))))))))...)))))))),48.3
6,CGACGTGCGATATGTGCTG+CAGCACATGGCGCACGTCG (((((((((..((((((((+))))))))..))))))))),57.4
7,CGACGTGCGACATGTGCTG+CAGCACATTAAGCACGTCG ((((((((...((((((((+))))))))...)))))))),53.3
8,CGACGTGCGCCATGTGCTG+CAGCACATTATGCACGTCG ((((((((...((((((((+))))))))...)))))))),47.6
9,CGACGTGCAGGATGTGCTG+CAGCACATTCCGCACGTCG ((((((((.(.((((((((+)))))))).).)))))))),54.6
10,CGACGTGCGCGATGTGCTG+CAGCACATAGAGCACGTCG ((((((((.(.((((((((+)))))))).).)))))))),55.8
11,CGACGTGCTTAATGTGCTG+CAGCACATCTCGCACGTCG ((((((((...((((((((+))))))))...)))))))),47.8
12,CGACGTGCTCCATGTGCTG+CAGCACATACCGCACGTCG ((((((((...((((((((+))))))))...)))))))),46.3
13,CGACGTGCAACATGTGCTG+CAGCACATTGCGCACGTCG ((((((((...((((((((+))))))))...)))))))),48.8
14,CGACGTGCTAGATGTGCTG+CAGCACATCATGCACGTCG ((((((((..(((((((((+)))))))))..)))))))),55.6
15,CGACGTGCTAGATGTGCTG+CAGCACATTAAGCACGTCG (((((((((..((((((((+))))))))..))))))))),53.3
16,CGACGTGCTAGATGTGCTG+CAGCACATATCGCACGTCG ((((((((.(.((((((((+)))))))).).)))))))),51
17,CGACGTGCGTTATGTGCTG+CAGCACATTAGGCACGTCG ((((((((.(.((((((((+)))))))).).)))))))),52.2
18,CGACGTGCCGAATGTGCTG+CAGCACATGCTGCACGTCG ((((((((.(.((((((((+)))))))).).)))))))),50.8
19,CGACGTGCCATATGTGCTG+CAGCACATACGGCACGTCG (((((((((.(((((((((+))))))))).))))))))),55.3
20,CGACGTGCTTGATGTGCTG+CAGCACATCCAGCACGTCG (((((((((.(((((((((+))))))))).))))))))),57.1
21,CGACGTGCGTGATGTGCTG+CAGCACATCAAGCACGTCG ((((((((.((((((((((+)))))))))).)))))))),58.6
22,CGACGTGCAAAATGTGCTG+CAGCACATAGAGCACGTCG ((((((((...((((((((+))))))))...)))))))),48.9
23,CGACGTGCTGAATGTGCTG+CAGCACATGTCGCACGTCG ((((((((...((((((((+))))))))...)))))))),52.1
24,CGACGTGCCTGATGTGCTG+CAGCACATAGAGCACGTCG ((((((((...((((((((+))))))))...)))))))),51.2

row,Substance,Tm [°C]
1,CGACGTGCCGCATGTGCTG+CAGCACATGAAGCACGTCG ((((((((..(((((((((+)))))))))..)))))))),53.8
2,CGACGTGCCAAATGTGCTG+CAGCACATCCTGCACGTCG ((((((((...((((((((+))))))))...)))))))),48.5
3,CGACGTGCTAGATGTGCTG+CAGCACATTAGGCACGTCG ((((((((...((((((((+))))))))...)))))))),52.2
4,CGACGTGCGCGATGTGCTG+CAGCACATAGCGCACGTCG ((((((((((.((((((((+)))))))).)))))))))),63
5,CGACGTGCACTATGTGCTG+CAGCACATGCTGCACGTCG (((((((((..((((((((+))))))))..))))))))),45.5
6,CGACGTGCACCATGTGCTG+CAGCACATCGTGCACGTCG ((((((((((.((((((((+)))))))).)))))))))),49.6
7,CGACGTGCCAAATGTGCTG+CAGCACATCTTGCACGTCG ((((((((.(.((((((((+)))))))).).)))))))),48.7
8,CGACGTGCCTCATGTGCTG+CAGCACATGCGGCACGTCG (((((((((.(((((((((+))))))))).))))))))),58.3
9,CGACGTGCCAGATGTGCTG+CAGCACATTGCGCACGTCG ((((((((...((((((((+))))))))...)))))))),51.2
10,CGACGTGCAAGATGTGCTG+CAGCACATCCGGCACGTCG ((((((((..(((((((((+)))))))))..)))))))),54.9
11,CGACGTGCGGCATGTGCTG+CAGCACATAATGCACGTCG ((((((((...((((((((+))))))))...)))))))),51.1
12,CGACGTGCGGTATGTGCTG+CAGCACATTTAGCACGTCG ((((((((...((((((((+))))))))...)))))))),54.5
13,CGACGTGCTGTATGTGCTG+CAGCACATCCAGCACGTCG ((((((((((.((((((((+)))))))).)))))))))),55.5
14,CGACGTGCAGGATGTGCTG+CAGCACATAGGGCACGTCG ((((((((...((((((((+))))))))...)))))))),50.3
15,CGACGTGCGTTATGTGCTG+CAGCACATTGGGCACGTCG ((((((((...((((((((+))))))))...)))))))),50.3
16,CGACGTGCAAAATGTGCTG+CAGCACATTGGGCACGTCG ((((((((..(((((((((+)))))))))..)))))))),54
17,CGACGTGCGGGATGTGCTG+CAGCACATGCAGCACGTCG ((((((((.(.((((((((+)))))))).).)))))))),57.2
18,CGACGTGCTTGATGTGCTG+CAGCACATGCAGCACGTCG (((((((((..((((((((+))))))))..))))))))),51.8
19,CGACGTGCATTATGTGCTG+CAGCACATCGTGCACGTCG (((((((((..((((((((+))))))))..))))))))),47.3
20,CGACGTGCAACATGTGCTG+CAGCACATACAGCACGTCG ((((((((...((((((((+))))))))...)))))))),47.9
21,CGACGTGCATGATGTGCTG+CAGCACATCTCGCACGTCG ((((((((..(((((((((+)))))))))..)))))))),53.9
22,CGACGTGCCTTATGTGCTG+CAGCACATAAGGCACGTCG (((((((((((((((((((+))))))))))))))))))),62.9
23,CGACGTGCCCTATGTGCTG+CAGCACATATCGCACGTCG ((((((((..(((((((((+)))))))))..)))))))),48.1
24,CGACGTGCACAATGTGCTG+CAGCACATTGTGCACGTCG (((((((((((((((((((+))))))))))))))))))),63

row,Substance,Tm [°C]
1,CGACGTGCACAATGTGCTG+CAGCACATGGAGCACGTCG ((((((((.(.((((((((+)))))))).).)))))))),52.5
2,CGACGTGCGGTATGTGCTG+CAGCACATAAGGCACGTCG ((((((((..(((((((((+)))))))))..)))))))),53
3,CGACGTGCTAGATGTGCTG+CAGCACATACAGCACGTCG (((((((((..((((((((+))))))))..))))))))),53.2
4,CGACGTGCCGTATGTGCTG+CAGCACATCTAGCACGTCG ((((((((...((((((((+))))))))...)))))))),49.1
5,CGACGTGCCCGATGTGCTG+CAGCACATCTTGCACGTCG ((((((((..(((((((((+)))))))))..)))))))),52.5
6,CGACGTGCTCAATGTGCTG+CAGCACATATAGCACGTCG (((((((((..((((((((+))))))))..))))))))),51.5
7,CGACGTGCCTGATGTGCTG+CAGCACATTCCGCACGTCG ((((((((...((((((((+))))))))...)))))))),48.5
8,CGACGTGCTAAATGTGCTG+CAGCACATGGGGCACGTCG ((((((((...((((((((+))))))))...)))))))),52.5
9,CGACGTGCTTGATGTGCTG+CAGCACATTCCGCACGTCG ((((((((...((((((((+))))))))...)))))))),48.5
10,CGACGTGCCTCATGTGCTG+CAGCACATTGCGCACGTCG ((((((((...((((((((+))))))))...)))))))),47.5
11,CGACGTGCCGAATGTGCTG+CAGCACATGACGCACGTCG ((((((((...((((((((+))))))))...)))))))),50.1
12,CGACGTGCTGCATGTGCTG+CAGCACATCCCGCACGTCG ((((((((.(.((((((((+)))))))).).)))))))),49.9
13,CGACGTGCAATATGTGCTG+CAGCACATGCTGCACGTCG (((((((((..((((((((+))))))))..))))))))),50.7
14,CGACGTGCTTGATGTGCTG+CAGCACATCCTGCACGTCG ((((((((..(((((((((+)))))))))..)))))))),54.5
15,CGACGTGCTTTATGTGCTG+CAGCACATGGTGCACGTCG ((((((((...((((((((+))))))))...)))))))),45.6
16,CGACGTGCGGCATGTGCTG+CAGCACATCCTGCACGTCG ((((((((.(.((((((((+)))))))).).)))))))),53.4
17,CGACGTGCCTAATGTGCTG+CAGCACATTCGGCACGTCG (((((((((.(((((((((+))))))))).))))))))),57
18,CGACGTGCTGGATGTGCTG+CAGCACATGGAGCACGTCG (((((((((..((((((((+))))))))..))))))))),53.2
19,CGACGTGCCTAATGTGCTG+CAGCACATTTTGCACGTCG ((((((((..(((((((((+)))))))))..)))))))),51.1
20,CGACGTGCTAGATGTGCTG+CAGCACATGACGCACGTCG ((((((((...((((((((+))))))))...)))))))),48.1
21,CGACGTGCGTTATGTGCTG+CAGCACATGCCGCACGTCG (((((((((..((((((((+))))))))..))))))))),53.7
22,CGACGTGCGGAATGTGCTG+CAGCACATCATGCACGTCG ((((((((...((((((((+))))))))...)))))))),51.9
23,CGACGTGCAGTATGTGCTG+CAGCACATTATGCACGTCG (((((((((..((((((((+))))))))..))))))))),52.4
24,CGACGTGCGGTATGTGCTG+CAGCACATGCGGCACGTCG ((((((((.(.((((((((+)))))))).).)))))))),55.1
